Patent US20020034767

Legend:
[1] = molecular target: T1, peptide RRRASAAASAA containing a phosphoserine as the first serine
T1 chain: RRRASAAASAA

peptide RRREEESEEE = molecular target: T2, peptide RRREEESEEE
T2 chain: RRREEESEEE

peptide RRRAEASAA = molecular target: T3, peptide RRRAEASAA
T3 chain: RRRAEASAA

peptide RRRAAAEASAAA = molecular target: T4, peptide RRRAAAEASAAA
T4 chain: RRRAAAEASAAA

[2] = molecular target: T5, rhodopsin in urea treated rod outer segments, P02699
T5 chain: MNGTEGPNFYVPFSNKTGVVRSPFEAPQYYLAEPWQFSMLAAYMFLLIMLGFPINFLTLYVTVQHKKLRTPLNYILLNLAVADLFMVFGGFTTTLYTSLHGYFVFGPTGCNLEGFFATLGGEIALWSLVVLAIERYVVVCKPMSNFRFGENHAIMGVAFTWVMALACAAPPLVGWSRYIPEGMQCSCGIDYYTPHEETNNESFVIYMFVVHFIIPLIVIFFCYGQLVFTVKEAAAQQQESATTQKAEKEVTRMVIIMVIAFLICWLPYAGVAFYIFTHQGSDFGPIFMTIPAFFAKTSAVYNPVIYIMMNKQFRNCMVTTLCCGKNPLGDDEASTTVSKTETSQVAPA

peptide RRREEESGGG = molecular target: T6, peptide RRREEESGGG
T6 chain: RRREEESGGG

[3] = molecular target: m2 muscarinic cholinergic receptor
[4] = molecular target: polylysine, a 14-16 amino acid peptide

B1: G protein-coupled receptor kinase GRK6 (human) (protein)
chain: MELENIVANTVLLKAREGGGGNRKGKSKKWRQMLQFPHISQCEELRLSLERDYHSLCERHAIGRLLFREFCATRPELSRCVAFLDGVAEYEVTPDDKRKACGRHVTQNFLSHTGPDLIPEVPRQLVTNCTQRLEQGPCKDLFQELTRLTHEYLSVAPFADYLDSIYFNRFLQWKWLERQPVTKNTFRQYRVLGKGGFGEVCACQVRATGKMYACKKLEKKRIKKRKGEAMALNEKQILEKVNSRFVVSLAYAYETKDALCLVLTLMNGGDLKFHIYHMGQAGFPEARAVFYAAEICCGLEDLHRERIVYRDLKPENILLDDHGHIRISDLGLAVHVPEGQTIKGRVGTVGYMAPEVVKNERYTFSPDWWALGCLLYEMIAGQSPFQQRKKKIKREEVERLVKEVPEEYSERFSPQARSLCSQLLCKDPAERLGCRGGSAREVKEHPLFKKLNFKRLGAGMLEPPFKPDPQAIYCKDVLDIEQFSYVKGVELEPTDQDFYQKFATGSVPIPWQNEMVETECFQELNVFGLDGSVPPDLDWKGQPPAPPKKGLLQRLFSRQDCCGNCSDSEEELPTRL
casein
  protein substrate phosphorylation: GRK6 was able to phosphorylate the acidic proteins casein and phosvitin
[1]
  peptide phosphorylation: the same peptide containing a phosphoserine as the first serine is not phosphorylated by GRK6
histones
  protein substrate phosphorylation: it was only weakly reactive toward the basic protein substrate histones
Peptide RRREEESEEE
  peptide phosphorylation: poorly phosphorylated by GRK6
Peptide RRRAEASAA
  peptide phosphorylation: GRK6 activity was also apparent with the RRRAEASAA (SEQ ID NO: 10) peptide
Peptide RRRAAAEASAAA
  peptide phosphorylation: but not with the RRRAAAEASAAA (SEQ ID NO: 11) peptide
[2]
  rhodopsin phosphorylation activity relative to βARK virus infected supernatant: 4.7% +/-0.4% that of the βARK virus infected supernatant
phosvitin
  protein substrate phosphorylation: GRK6 was able to phosphorylate the acidic proteins casein and phosvitin
Peptide RRREEESGGG
  peptide phosphorylation: poorly phosphorylated by GRK6
β2-adrenergic receptor
  stimulus dependent receptor phosphorylation: GRK6 is also able to phosphorylate rhodopsin, β2-adrenergic and m2 muscarinic cholinergic receptors in a stimulus dependent manner, albeit to a significantly lower extent than βARK and GRK5
[3]
  stimulus dependent receptor phosphorylation: GRK6 is also able to phosphorylate rhodopsin, β2-adrenergic and m2 muscarinic cholinergic receptors in a stimulus dependent manner, albeit to a significantly lower extent than βARK and GRK5
G protein βγ subunits
  kinase activation by G protein βγ subunits: it is not activated by G protein βγ subunits
[4]
  fold increase in phosphorylation of rhodopsin: an ˜2.7-fold increase in phosphorylation (optimal range 1 to 10 µM)
